# Measurements as given in the supplement of paper PMC10567573.
# ± gives the standard deviation.
# Assay: protein stability index of a GFP-peptide fusion (GPS, HEK-293T) (PSI 1-6); higher = more stable
# Conditions: c terminus: a fixed tail appended
# 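Also: 24-mer peptide tiles fused after GFP, lentivirally expressed, FACS-sorted into six equal bins by GFP/DsRed ratio, decoded by Illumina sequencing, PSI is the read-weighted mean bin number.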
Sequence,protein stability index (treatment: DMSO),"protein stability index (treatment: MLN4924 1 uM, 8 h)"
KMDMSVLEISGIIMSRVNAYQQGV [PHTF1],2.5 ± 0.54,2.48 ± 0.49
KPDDEVKETAHDLDVKSPPEPRSE [RIPK4],5.63 ± 0.34,5.61 ± 0.37
KRLKERSLDTLLEAVESRGGVPGG [SMAD6],4.32 ± 0.16,4.72 ± 0.12
KSGPGDGFFSSAFQARLSGNNLHN [POMT2],3.04 ± 0.096,2.95 ± 0.41
KSPTGLKLKNDTENHQPVSLSDLE [ZNF75A],5.3 ± 0.23,5.188 ± 0.043
KSQLGFLNVTNYCHLAHELRLSCM [DCAF4],3.04 ± 0.41,2.57 ± 0.36
KSVAWEGGACPAFLPSLRPPPLTS [NCF4],3.12 ± 0.36,3.11 ± 0.078
KTAATRYRQKKRAEQEALTGECKE [ATF4],4.95 ± 0.16,5.1 ± 0.094
KTSELLVRKWRVKSALGAMGQWQL [DPCD],2.56 ± 0.76,2.47 ± 0.41
KVEVDMEKIAAEIAQAEEQARKRQ [SMARCE1],4.99 ± 0.27,4.78 ± 0.37
KVPFSQEIKDLILPKISDPNFVKD [PI4K2A],3.56 ± 0.24,3.56 ± 0.28
LAAAVVQEHSNSVGGQDTGATWRT [C18orf25],4.22 ± 0.23,4.18 ± 0.21
LACWTYGISVPSGLFVPSLLCGAA [CLCN6],3.13 ± 0.1,3.43 ± 0.4
LAEYQDLTFLTKQEILLAHRRFCE [CIB1],2.3 ± 0.1,2.54 ± 0.38
LAMNYLDRFLAGVPTPKSHLQLLG [CCND2],2.94 ± 0.61,2.65 ± 0.76
LARKGSLKNGSMGSPVNQQPKKNN [FAM219A],4.85 ± 0.25,4.77 ± 0.065
LAVSRPRSSPDDLKALTRNVNRLN [SCARA5],3.82 ± 0.22,3.84 ± 0.22
LCKSVLEIERAIKQTQCPADPLQL [FEM1C],3.17 ± 0.13,3.11 ± 0.26
LCRRLNTLNKCAVMKLEISPHRKR [DLC1],2.12 ± 0.069,2.85 ± 0.22
LDDRKNEEDGGADEHEHPLTSELD [MIA2],5.76 ± 0.12,5.26 ± 0.38
LDFLQEVTRQPRNLQDLCRIKIRQ [ASB7],3.35 ± 0.16,3.57 ± 0.3
LDSEKPKKLRFHPKQLYFSARQGE [EHMT1],3.2 ± 0.038,3.4 ± 0.21

Sequence,protein stability index (treatment: DMSO),"protein stability index (treatment: MLN4924 1 uM, 8 h)"
LEETKGRYCMQLSQIQGLIGSVEE [KRT16],3.91 ± 0.17,3.91 ± 0.2
LENTYRDFWLMVWEQKVLVIVMTT [PTPN9],2.36 ± 0.7,2.59 ± 0.6
LENVFSSLTDDKYDVAMNRAKDLV [GOLPH3L],3.89 ± 0.32,3.92 ± 0.19
LEPLKAIIQYRLPMKKNNNLYSWD [ACSBG2],2.57 ± 0.47,2.17 ± 0.2
LESELLRGTQYSSLDSLDGLSLTD [PSD2],4.53 ± 0.22,4.73 ± 0.21
LESSYNDEMLSYLPGGTTGLQLPS [TFE3],3.94 ± 0.18,3.88 ± 0.27
LFAEEQAEGPNRLLYKDGFSTILH [LPCAT4],3.17 ± 0.24,3.1 ± 0.35
LFEEPAPQALATRALPCPAHVVFR [FCHSD1],3.13 ± 0.16,3.21 ± 0.19
LFLGIHVFLVSCALPDSVLRRFVV [AUP1],3.03 ± 0.52,2.97 ± 0.63
LFQVVINPNFEVAESDYSNNIMKC [LOXL2],2.09 ± 0.28,2.5 ± 0.27
LGANEVLLVVGGFGSQQSPIDVVE [KLHL12],2.27 ± 0.28,2.25 ± 0.85
LGCFSDTEPWGGTAIRPLKILPWS [PNLIPRP1],2.1 ± 0.28,2.43 ± 0.57
LGESKEHMESRMVTETEETQEKKA [SDE2],5.51 ± 0.3,5.75 ± 0.12
LGETKAYVFFEKDFGDMHSYVRSR [TRIB1],2.62 ± 0.42,2.37 ± 0.11
LGYPYVNSVSSHASSPYISSVQSY [DLX1],2.29 ± 0.18,2.35 ± 0.27
LHDNHEQMPTEIEFPESRKPISTK [ZNF649],5.1 ± 0.22,5.25 ± 0.31
LHVNPKKQTIGNSCKACGYRGMLD [EIF5],2.35 ± 0.29,2.44 ± 0.64
LIQDGNPMENLEKQLICPICLEMF [TRIM63],2.87 ± 0.58,2.97 ± 0.54
LKEFDLDALLGIDDLETMPDDLLT [ATF4],3.81 ± 0.2,4.05 ± 0.38
LKERYQKIGDTKRNTPIEALCENF [CSNK1G1],3.43 ± 0.65,3.44 ± 0.49
LKKSNSAPSKKAAKDPGKGELPNH [FBF1],5.14 ± 0.1,5.08 ± 0.11
LLASSDAALSASMASLLEDLSHIE [SERTAD1],3.06 ± 0.37,3.27 ± 0.33
